This assay deals with T1, GST-NPM1 (unSUMOylated) (UniProt P06748 1-294).
T1 construct: Nucleophosmin (NPM1); also called GST-tagged NPM1; unSUMOylated GST-NPM1; source: E. coli, purified
Description: pull-down; in vitro GST pull-down; His-hCINAP and GST-NPM1 purified from E. coli; GST protein as negative control. As to conditions: both partners purified.

T1 sequence (P06748 whole entry): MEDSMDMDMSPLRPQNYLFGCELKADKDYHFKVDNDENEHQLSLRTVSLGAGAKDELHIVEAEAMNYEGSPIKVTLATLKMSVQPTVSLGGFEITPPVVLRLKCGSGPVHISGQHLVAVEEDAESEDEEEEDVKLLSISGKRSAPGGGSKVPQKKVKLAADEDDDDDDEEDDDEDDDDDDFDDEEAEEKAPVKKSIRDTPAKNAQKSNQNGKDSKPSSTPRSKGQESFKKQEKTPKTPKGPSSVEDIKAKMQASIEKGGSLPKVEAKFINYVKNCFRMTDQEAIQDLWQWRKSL

B1: His-hCINAP (natural protein, human, UniProt Q9Y3D8 1-172, looked up)
chain: MLLPNILLTGTPGVGKTTLGKELASKSGLKYINVGDLAREEQLYDGYDEEYDCPILDEDRVVDELDNQMREGGVIVDYHGCDFFPERWFHIVFVLRTDTNVLYERLETRGYNEKKLTDNIQCEIFQVLYEEATASYKEEIVHQLPSNKPEELENNVDQILKWIEQWIKDHNS
notes: source: E. coli, purified
On to B1, for which the binding result is listed as “binds”.

The values above are taken from publication PMC6707248, “hCINAP regulates the DNA-damage response and mediates the resistance of acute myelocytic leukemia cells to therapy” (Nature Communications, 2019).
